Test results: PMC7019167, “Development of a high affinity Anticalin® directed against human CD98hc for theranostic applications” (Theranostics, 2020)

T1: glycosylated human CD98hc ectodomain (hCD98hcEDg), monobiotinylated (human, UniProt P08195-2 111-529, single biotin group on the biotin acceptor peptide (BirA co-expressed); N-glycosylated)
T1 construct: human CD98 heavy chain, extracellular domain, UniProt ID P08195-2, residues Glu111-Ala529; also called 4F2hc; SLC3A2; not shown: biotin acceptor peptide (BAP), N-terminal, kept
T1 sequence (looked up): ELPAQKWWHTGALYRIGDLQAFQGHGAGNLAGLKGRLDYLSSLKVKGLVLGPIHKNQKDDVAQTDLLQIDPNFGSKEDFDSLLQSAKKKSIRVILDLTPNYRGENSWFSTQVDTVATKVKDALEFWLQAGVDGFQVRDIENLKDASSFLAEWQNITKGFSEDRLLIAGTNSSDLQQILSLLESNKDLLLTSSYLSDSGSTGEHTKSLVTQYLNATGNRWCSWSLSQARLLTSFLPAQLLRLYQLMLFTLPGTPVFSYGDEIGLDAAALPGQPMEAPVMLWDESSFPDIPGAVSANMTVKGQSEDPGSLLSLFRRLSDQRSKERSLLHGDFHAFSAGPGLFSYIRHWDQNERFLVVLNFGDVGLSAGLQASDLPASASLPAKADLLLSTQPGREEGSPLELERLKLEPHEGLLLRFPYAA


Tests used:
[1] = target: T1, glycosylated human CD98hc ectodomain …; experiment: SPR; biotinylated hCD98hcEDg immobilised (ΔRU ≈ 225) on a streptavidin-functionalized sensorchip (Biotin CAPture kit); BIAcore 2000, 25 °C, HBS-T (20 mM Hepes/NaOH pH 7.5, 150 mM NaCl, 0.005% Tween 20); single cycle kinetics, five injections of a 1:2 dilution series of the lipocalin variant; global 1:1 Langmuir fit; KD = koff/kon; conditions: both partners purified
[2] = target: human CD98hc ectodomain, unglycosylated, biotinylated (hCD98hcED) (human) (UniProt P08195); experiment: SPR; single cycle kinetics (five injections of a 1:2 dilution series, 3500 s dissociation); biotinylated hCD98hcED immobilised on a streptavidin sensorchip (Biotin CAPture kit), lipocalin variant as analyte; 25 °C, HBS-T; global 1:1 Langmuir fit

Binder | koff [1] | kon [1] | Kd [1] | Kd [2] | koff [2] | kon [2] | τ1/2 (complex half-life) [2]
lipocalin variant (Anticalin) P3D11 (designed binder, source: E. coli JM83, periplasmic extract, purified (IMAC, SEC)) QDSTSDLIPAPPLSKVPLQQNFQDNQFHGKWYVVGRAGNTGLREDKDPGKMFATIYELKEDKSYNVTYVWFGQKKCMYSIGTFVPGSQPGEFTLGNIKSAPGRTSWLVRVVSTNYNQHAMVFFKSVTQNREGFAITLYGRTKELTSELKENFIRFSKSLGLPENHIVFPVPIDQCIDG | 5e-05 s⁻¹ | 300000 M⁻¹ s⁻¹ |  |  |  |  | 
Anticalin D11vs (P3D11 with Phe71Ser and Gly81Val) (designed binder, source: E. coli, soluble protein at preparative scale, purified) QDSTSDLIPAPPLSKVPLQQNFQDNQFHGKWYVVGRAGNTGLREDKDPGKMFATIYELKEDKSYNVTYVWSGQKKCMYSIVTFVPGSQPGEFTLGNIKSAPGRTSWLVRVVSTNYNQHAMVFFKSVTQNREGFAITLYGRTKELTSELKENFIRFSKSLGLPENHIVFPVPIDQCIDG | 2.2e-05 s⁻¹ | 460000 M⁻¹ s⁻¹ | 50 ± 3 pM | 60 pM | 2.6e-05 s⁻¹ | 450000 M⁻¹ s⁻¹ | 7.37 h
lipocalin variant (Anticalin) P1E4 (designed binder, source: E. coli JM83, periplasmic extract, purified (IMAC, SEC)) QDSTSDLIPAPPLSKVPLQQNFQDNQFHGKWYVVGIAGNSMLREDKDPFKMTATIYELKEDKSYNVTRVRFDDKKCLYRILTFVPGSQPGEFTLGNIKSRPGWTSWLVRVVSTNYNQHAMVFFKRVHQNRETFWITLYGRTKELTSELKENFIRFSKSLGLPENHIVFPVPIDQCIDG | 0.09 s⁻¹ | 560000 M⁻¹ s⁻¹ | 162000 ± 20900 pM |  |  |  | 
